{
  "source": "the nanobody polyreactivity screen of Harvey et al. (2022)",
  "data": [
    {"assay": "yeast display, Sf9 membrane polyspecificity reagent, FACS + sequencing; frameworks hold sequencing errors", "how_it_was_run": "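Using colony PCR, genes from sorted yeast display clones were amplified, then sequenced on MiSeq at 2 × 250 and filtered by CDR length. The clones had been stained with 10% biotinylated, detergent-solubilized Sf9 membrane reagent for 1 hour at 4 °C and sorted by FACS into low and high (top ~1%) gates on anti-HA and streptavidin fluorescence. Polyreactivity labels come from the gate of origin.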", "values": [
      {"sequence": "QVQLVESGGGLVQAGGSLRLSCAASGRTFTDNAMGWYRQAPGKERELVAAISRRGGSTYYADSVKGRFTISRDNAKNTVYLQMNSLKPEDTAVYYCARASRDIRPYDYWGQGTQVTVSS", "polyreactivity (PSR sort gate)": "high polyreactivity"},
      {"sequence": "QVQLVESGGGLVQAGGSLRLSCAASGRTFTEYAMGWYRQAHGKERELVARISIGDSTYYADSVKGRFTISRDNAKNTVYLQMNSLKPEDTAVYYCNAEYSRSYRYDEGYWGQGTKVTVSS", "polyreactivity (PSR sort gate)": "low polyreactivity"},
      {"sequence": "QVQLVESGGGLVQAGGSLRLSCAASGRTFTGNAMGWYRPAPGKERELVADNNLSGGDTYYADSVKGRFTISRDNAKNTVYLQMNSLKPEDTAVYYCNARVRDKRTGRYGYWGQGTQVTVSS", "polyreactivity (PSR sort gate)": "high polyreactivity"},
      {"sequence": "QVQLVESGGGLVQAGGSLRLSCAASGRTFTGYNMGWYRQEPGKEREFVAAISSNGGRTYYADSVKGRFTISRDNAKNTVYLQMNSLKPEDTAVYYCAAPFTFWGQGTQVTVSS", "polyreactivity (PSR sort gate)": "high polyreactivity"},
      {"sequence": "QVQLVESGGGLVQAGGSLRLSCAASGRTFTGYVMGWYRQAPGKERELVAVIRYRGGGSYYADSVKGRFTISRDNAKNTVYLQMNSLKPEDTAVYYCARKRVYFGLWMYYWGHGTQVTVSS", "polyreactivity (PSR sort gate)": "high polyreactivity"},
      {"sequence": "QVQLVESGGGLVQAGGSLRLSCAASGRTFTIYARGWYRHAPGKERELVAAISSGSRTYYADSVKGRFTISRDNAKNTVYLQMNSLKPEDTAVYYCAASLTRHGYYRLFDYWGQGTQVTVSS", "polyreactivity (PSR sort gate)": "high polyreactivity"},
      {"sequence": "QVQLVESGGGLVQAGGSLRLSCAASGRTFTPYAMGWYRQAPGKERELVATISGGGSTHYADSVKGRFTISRDNAKNTVYIQRNSLKPEDTAVYYCSPSRDTVGRGPIQRDYWGQGTQVTVSS", "polyreactivity (PSR sort gate)": "low polyreactivity"},
      {"sequence": "QVQLVESGGGLVQAGGSLRLSCAASGRTFTPYAMGWYRQAPGKERELVATISSGTSTNYADSVKGRFTISRDNAKNTVYLQMNSLKPEDTAVYYCAADGYTYKFDYWGQGTQVTVSS", "polyreactivity (PSR sort gate)": "low polyreactivity"},
      {"sequence": "QVQLVESGGGLVQAGGSLRLSCAASGRTFTQNAMGWYRQATGKERELVASISSSGSTYADSVKGRFTISRDNAKNTVYLQMISLKPEDTAVNYCNAVGFQANDYNYWGQGTQVTVSS", "polyreactivity (PSR sort gate)": "low polyreactivity"},
      {"sequence": "QVQLVESGGGLVQAGGSLRLSCAASGRTFTRIAMGWYRPAPGKERELVAAIRWRGGGSTYYADSVKGRFTISRDNAKNTVYLQMNSLKPEDTAVYYCNARRYTGTGSAWYYYWGQGTQVTVSS", "polyreactivity (PSR sort gate)": "high polyreactivity"},
      {"sequence": "QVQLVESGGGLVQAGGSLRLSCAASGRTFTRYAMGWYRQAPGKERELVAAISVRAGITYYADSVKGRFTISRDNAKNTVYLQMNSLKPEDTAVYYCAAKDGRSYYDRTPMVYFGQGTQVTVSS", "polyreactivity (PSR sort gate)": "low polyreactivity"},
      {"sequence": "QVQLVESGGGLVQAGGSLRLSCAASGRTFTRYAMGWYRQAPGKERELVAAITIGDTTNYADSVKGRFTISRDNAKNTVYLQMNSLKPEDTAVYYCAAYVPRWSSYRRGGYWGQGTQVTVSS", "polyreactivity (PSR sort gate)": "high polyreactivity"},
      {"sequence": "QVQLVESGGGLVQAGGSLRLSCAASGRTFTRYPMGWYRQAPGKERELVAAITRGGSTYADSVKGRFTISRDNAKNTVYLQMNSLKPEDTAVYYCAAYWGFYPWRAYPYDYWGQGTQVTVSS", "polyreactivity (PSR sort gate)": "high polyreactivity"},
      {"sequence": "QVQLVESGGGLVQAGGSLRLSCAASGRTFTRYSMGWYRQAPGKERELVAAISRSGGSTYYADSVKGRFTISRDNAKNTVYLQMNSLKPEDTAVYYCAADVYRDLAYDYWGQGTQVTVSS", "polyreactivity (PSR sort gate)": "high polyreactivity"},
      {"sequence": "QVQLVESGGGLVQAGGSLRLSCAASGRTFTRYTMGWYRQAAGKERELVAAISYSGGSTYYADSVKGRFTISRDNAKNTVYLQMNSLKPEDTAVYYCAAASVRWPGYDYWGQGTQVTVSS", "polyreactivity (PSR sort gate)": "high polyreactivity"},
      {"sequence": "QVQLVESGGGLVQAGGSLRLSCAASGRTFTSYAMGWYRQAPGKERELVAAISQGGGRTYYADSVKGRFTISRDNAKNTVYLQMNSLKPEDTAVYYCNARSLYPWRWKKEYGHWGQGTQVTVSS", "polyreactivity (PSR sort gate)": "high polyreactivity"},
      {"sequence": "QVQLVESGGGLVQAGGSLRLSCAASGRTFTSYAMGWYRQAPGKERELVATISWSGGSTYYADSVKGRFTISRDNAKNTVYLQMNSLKPEDTAVYYCAALKPWTTGYGDRFDYWGQGTQVTVSS", "polyreactivity (PSR sort gate)": "low polyreactivity"},
      {"sequence": "QVQLVESGGGLVQAGGSLRLSCAASGRTFTTNAMGWYRQAPGKERELVAAITSTTRTYYADSVKGRFTISRDNAKNTVYLQMNSLKPEDTAVYFCAARYPTPWGYYYWGQGTQVTVSS", "polyreactivity (PSR sort gate)": "high polyreactivity"},
      {"sequence": "QVQLVESGGGLVQAGGSLRLSCAASGRTFTTNTMGWYRQAPGKERELVAGIRWSGSRTYYADSVKGRFTISRDNAKITVFLQMNSLKPEDSAVYYCAVGRRSDAPLYVYRFDYWGQGTQVTVSS", "polyreactivity (PSR sort gate)": "low polyreactivity"},
      {"sequence": "QVQLVESGGGLVQAGGSLRLSCAASGRTFTTYAMGWYRQAPGKARELVAAISDTGGITYYADSVKGRFTISRDNAKNTVYLQMISLKPEDTAVYYCNAESYGGDYDYWGQGTQVTVSS", "polyreactivity (PSR sort gate)": "low polyreactivity"},
      {"sequence": "QVQLVESGGGLVQAGGSLRLSCAASGRTFTVNAIGWYRQAPGKERELVAAISGRSGRTSYADSVKGRFTISRDNAKNTVYLQMNSLKPEDTAVYYCNASGGYSTGSRYDYWGQGTQVTVSS", "polyreactivity (PSR sort gate)": "high polyreactivity"},
      {"sequence": "QVQLVESGGGLVQAGGSLRLSCAASGRTFTVYAMGWYRQAPGKERELVAAINYSGGRTYYADSVKGRFTISRDNAKNTVYLQMNSLKPEDTAVYYCAAYVYQSSPRYSRYGGYDYWGQGTQVTVSS", "polyreactivity (PSR sort gate)": "low polyreactivity"},
      {"sequence": "QVQLVESGGGLVQAGGSLRLSCAASGRTFTWNVMGWYRQAPGKERELVAAITTDDRTYADSVKGRFTISRDNAKNTVYLQMNSLKPEDTAVYYCATVVAWSSRPVGEDYWGQGTQVTVSS", "polyreactivity (PSR sort gate)": "low polyreactivity"},
      {"sequence": "QVQLVESGGGLVQAGGSLRLSCAASGRTFTYNVMGWYRQAPGKERELVAAISSGGGTISADSVKGRFTISRDNAKHTVYLQMNSLKPEDTAVYYCAAKYAWRLLEMYYWGQGTQVTVSS", "polyreactivity (PSR sort gate)": "low polyreactivity"},
      {"sequence": "QVQLVESGGGLVQAGGSLRLSCAASGRTFTYYAMGWYIQAPGKERELVAAITSGGRTYYADSVKGRFTISRDNAKNHVYLQMNSLKPEDTAVYYCAARRIRDYYRSYDYWGQGTQVTVSS", "polyreactivity (PSR sort gate)": "high polyreactivity"},
      {"sequence": "QVQLVESGGGLVQAGGSLRLSCAASGRTFTYYAMGWYRQAPGKERELVAAIRWTGDSTYYADSVKGRFTISRDNAKNTVYLQMNSLKPEDTAVYYCAKQARWQYDGGIRWYYYWGQGTQVTVSS", "polyreactivity (PSR sort gate)": "high polyreactivity"},
      {"sequence": "QVQLVESGGGLVQAGGSLRLSCAASGRTFTYYAMGWYRQAPGKVRELVAAITFRGGRTYYADSVKGRFTFSRDNPKNTVYLQMNSLKPEDTAVYYCAAVPLWSYGGNYWGQGTQVTVSS", "polyreactivity (PSR sort gate)": "high polyreactivity"},
      {"sequence": "QVQLVESGGGLVQAGGSLRLSCAASGRTFVANRMGWYRQAPGKERELVAAINDGDDTYYADSVKGRFTISRDNAKNTVYLQMNSLKPEDTAVYYCAADIIYGYEVYTYTSDYWGQGTQVTVSS", "polyreactivity (PSR sort gate)": "low polyreactivity"},
      {"sequence": "QVQLVESGGGLVQAGGSLRLSCAASGRTFVEYAMGWYRQAPGKERELVADITISGGRTYYADSVKGRFTISRDNAKNTVYLQMNSLKPEDTAVYYCNAQSYLGVTHRGYIKNGYDYWGQGTQVTVSS", "polyreactivity (PSR sort gate)": "low polyreactivity"},
      {"sequence": "QVQLVESGGGLVQAGGSLRLSCAASGRTFVGNALGGYIQAPGKERELVAAISSGGSTYYADSVKGRFTISRDNAKITVYLQMNSLNPEDTAVYYCAGLYRRGAHGDYWGQGTQVTVSS", "polyreactivity (PSR sort gate)": "low polyreactivity"}
    ]}
  ]
}
